T1: human recombinant soluble CD73 protein (human, UniProt P21589 27-547)
T1 construct: also called huCD73; rhCD73
T1 sequence: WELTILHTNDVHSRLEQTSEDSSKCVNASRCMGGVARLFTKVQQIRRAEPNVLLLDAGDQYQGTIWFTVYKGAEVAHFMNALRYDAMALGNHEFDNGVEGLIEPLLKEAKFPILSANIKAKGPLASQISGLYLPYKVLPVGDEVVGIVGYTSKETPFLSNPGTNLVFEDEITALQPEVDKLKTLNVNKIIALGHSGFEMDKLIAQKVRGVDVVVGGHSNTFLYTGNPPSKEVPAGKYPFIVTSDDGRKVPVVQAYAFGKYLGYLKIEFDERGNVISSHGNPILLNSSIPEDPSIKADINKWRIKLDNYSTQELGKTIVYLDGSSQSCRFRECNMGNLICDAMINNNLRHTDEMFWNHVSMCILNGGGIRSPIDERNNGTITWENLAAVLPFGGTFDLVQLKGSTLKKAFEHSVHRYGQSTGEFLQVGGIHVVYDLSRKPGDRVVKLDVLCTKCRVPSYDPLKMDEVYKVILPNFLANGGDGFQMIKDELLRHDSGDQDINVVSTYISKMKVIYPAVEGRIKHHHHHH


Target: T1, human recombinant soluble CD73 protein
Test: SPR, Ab captured on Protein A, soluble huCD73 as analyte
Procedure: SPR measurements were performed on a Biacore™ T200 apparatus at 25° C. Protein-A (GE Healthcare) was immobilized on a Sensor Chip CM5 (GE Healthcare). […] The entire sensorgram sets were fitted using the 1:1 kinetic binding model. Bivalent affinities and kinetic association and dissociation rate constants are calculated.
The binding of the antibodies in Table 2 of Example 1 were tested for binding to human soluble dimeric CD73 proteins and were cloned, produced and purified. Affinity and association and dissociation constants of humanized variants were assessed by SPR analysis.

| Binder | Kd [nM] | koff [s⁻¹] | kon [M⁻¹ s⁻¹] |
| --- | --- | --- | --- |
| H2L2 (antibody, human IgG1, V domains shown) VH: QIQLVQSGAEVKKPGASVKVSCKASGYAFTSYNMYWVRQAPGQSLEWMGYIDPYNGGSSYNLTFKGRVTITVDKSASTAYMELSSLRSEDTAVYYCARGYGNYKAWFAYWGQGTLVTVSS VL: DIQMTQSPSSLSASVGDRVTITCKASQSVSNDVAWYQQKPGKAPKLLIYYASTRYTGVPDRFSGSGYGTDFTFTISSLQPEDIATYYCQQDYSSLTFGQGTKLEIK | 1.3 | 0.000155 | 118000 |
| H4L0 (antibody, human IgG1, V domains shown, L0 VL limits counted by alignment with L1) VH: QIQLVQSGAEVKKPGASVKVSCKASGYAFASYNMYWVRQAPGQSLEWIGYIDPYNGGSSYNLTFKGKATLTVDKSASTAYMELSSLRSEDTAVYYCARGYGNYKAWFAYWGQGTLVTVSS VL: DIQMTQSPSSLSASVGDRVTITCKASQSVSNDVAWYQQKPGKAPKLLIYYASTRYTGVPSRFSGSGSGTDFTFTISSLQPEDIATYYCQQDYSSLTFGQGTKLEIK | 7.8 | 0.00123 | 158000 |
| H4L4 (antibody, human IgG1, V domains shown) VH: QIQLVQSGAEVKKPGASVKVSCKASGYAFASYNMYWVRQAPGQSLEWIGYIDPYNGGSSYNLTFKGKATLTVDKSASTAYMELSSLRSEDTAVYYCARGYGNYKAWFAYWGQGTLVTVSS VL: DVQMTQSPSSLSASVGDRVTITCKASQSVSNDVAWYQQKPGKAPKLLIYYASTRYTGVPDRFSGSGYGTDFTFTISSLQPEDIATYFCQQDYSSLTFGQGTKLEIK | 1.2 | 7.14e-05 | 60100 |
| H4L3 (antibody, human IgG1, V domains shown) VH: QIQLVQSGAEVKKPGASVKVSCKASGYAFASYNMYWVRQAPGQSLEWIGYIDPYNGGSSYNLTFKGKATLTVDKSASTAYMELSSLRSEDTAVYYCARGYGNYKAWFAYWGQGTLVTVSS VL: DVQMTQSPSSLSASVGDRVTITCKASQSVSNDVAWYQQKPGKAPKLLIYYASTRYTGVPDRFSGSGYGTDFTFTISSLQPEDIATYYCQQDYSSLTFGQGTKLEIK | 0.7 | 7.69e-05 | 110000 |
| H0L3 (antibody, human IgG1, V domains shown, H0 VH limits counted by alignment with H1) VH: QVQLVQSGAEVKKPGASVKVSCKASGYTFTSYNMYWVRQAPGQRLEWMGYIDPYNGGSSYNLTFKGRVTITRDTSASTAYMELSSLRSEDTAVYYCARGYGNYKAWFAYWGQGTLVTVSS VL: DVQMTQSPSSLSASVGDRVTITCKASQSVSNDVAWYQQKPGKAPKLLIYYASTRYTGVPDRFSGSGYGTDFTFTISSLQPEDIATYYCQQDYSSLTFGQGTKLEIK | 0.6 | 9.49e-05 | 170000 |
| H3L4 (antibody, human IgG1, V domains shown) VH: QIQLVQSGAEVKKPGASVKVSCKASGYAFTSYNMYWVRQAPGQSLEWIGYIDPYNGGSSYNLTFKGKATITVDKSASTAYMELSSLRSEDTAVYYCARGYGNYKAWFAYWGQGTLVTVSS VL: DVQMTQSPSSLSASVGDRVTITCKASQSVSNDVAWYQQKPGKAPKLLIYYASTRYTGVPDRFSGSGYGTDFTFTISSLQPEDIATYFCQQDYSSLTFGQGTKLEIK | 1 | 8.91e-05 | 90400 |
| H3L3 (antibody, human IgG1, V domains shown) VH: QIQLVQSGAEVKKPGASVKVSCKASGYAFTSYNMYWVRQAPGQSLEWIGYIDPYNGGSSYNLTFKGKATITVDKSASTAYMELSSLRSEDTAVYYCARGYGNYKAWFAYWGQGTLVTVSS VL: DVQMTQSPSSLSASVGDRVTITCKASQSVSNDVAWYQQKPGKAPKLLIYYASTRYTGVPDRFSGSGYGTDFTFTISSLQPEDIATYYCQQDYSSLTFGQGTKLEIK | 1.1 | 0.000105 | 95700 |
| H2L3 (antibody, human IgG1, V domains shown) VH: QIQLVQSGAEVKKPGASVKVSCKASGYAFTSYNMYWVRQAPGQSLEWMGYIDPYNGGSSYNLTFKGRVTITVDKSASTAYMELSSLRSEDTAVYYCARGYGNYKAWFAYWGQGTLVTVSS VL: DVQMTQSPSSLSASVGDRVTITCKASQSVSNDVAWYQQKPGKAPKLLIYYASTRYTGVPDRFSGSGYGTDFTFTISSLQPEDIATYYCQQDYSSLTFGQGTKLEIK | 1 | 0.000123 | 120000 |
| H2L4 (antibody, human IgG1, V domains shown) VH: QIQLVQSGAEVKKPGASVKVSCKASGYAFTSYNMYWVRQAPGQSLEWMGYIDPYNGGSSYNLTFKGRVTITVDKSASTAYMELSSLRSEDTAVYYCARGYGNYKAWFAYWGQGTLVTVSS VL: DVQMTQSPSSLSASVGDRVTITCKASQSVSNDVAWYQQKPGKAPKLLIYYASTRYTGVPDRFSGSGYGTDFTFTISSLQPEDIATYFCQQDYSSLTFGQGTKLEIK | 0.9 | 0.000106 | 120000 |
| H0L0 (antibody, human IgG1, V domains shown, variable-domain limits counted by alignment with H1 and L1) VH: QVQLVQSGAEVKKPGASVKVSCKASGYTFTSYNMYWVRQAPGQRLEWMGYIDPYNGGSSYNLTFKGRVTITRDTSASTAYMELSSLRSEDTAVYYCARGYGNYKAWFAYWGQGTLVTVSS VL: DIQMTQSPSSLSASVGDRVTITCKASQSVSNDVAWYQQKPGKAPKLLIYYASTRYTGVPSRFSGSGSGTDFTFTISSLQPEDIATYYCQQDYSSLTFGQGTKLEIK | 65 | 0.00882 | 136000 |
| H1L4 (antibody, human IgG1, V domains shown) VH: QIQLVQSGAEVKKPGASVKVSCKASGYTFTSYNMYWVRQAPGQRLEWMGYIDPYNGGSSYNLTFKGRVTITRDKSASTAYMELSSLRSEDTAVYYCARGYGNYKAWFAYWGQGTLVTVSS VL: DVQMTQSPSSLSASVGDRVTITCKASQSVSNDVAWYQQKPGKAPKLLIYYASTRYTGVPDRFSGSGYGTDFTFTISSLQPEDIATYFCQQDYSSLTFGQGTKLEIK | 0.7 | 6.77e-05 | 98200 |
| H0L1 (antibody, human IgG1, V domains shown, H0 VH limits counted by alignment with H1) VH: QVQLVQSGAEVKKPGASVKVSCKASGYTFTSYNMYWVRQAPGQRLEWMGYIDPYNGGSSYNLTFKGRVTITRDTSASTAYMELSSLRSEDTAVYYCARGYGNYKAWFAYWGQGTLVTVSS VL: DIQMTQSPSSLSASVGDRVTITCKASQSVSNDVAWYQQKPGKAPKLLIYYASTRYTGVPSRFSGSGYGTDFTFTISSLQPEDIATYYCQQDYSSLTFGQGTKLEIK | 0.9 | 0.000127 | 144000 |
| H4L2 (antibody, human IgG1, V domains shown) VH: QIQLVQSGAEVKKPGASVKVSCKASGYAFASYNMYWVRQAPGQSLEWIGYIDPYNGGSSYNLTFKGKATLTVDKSASTAYMELSSLRSEDTAVYYCARGYGNYKAWFAYWGQGTLVTVSS VL: DIQMTQSPSSLSASVGDRVTITCKASQSVSNDVAWYQQKPGKAPKLLIYYASTRYTGVPDRFSGSGYGTDFTFTISSLQPEDIATYYCQQDYSSLTFGQGTKLEIK | 0.9 | 7.12e-05 | 77500 |
| H1L3 (antibody, human IgG1, V domains shown) VH: QIQLVQSGAEVKKPGASVKVSCKASGYTFTSYNMYWVRQAPGQRLEWMGYIDPYNGGSSYNLTFKGRVTITRDKSASTAYMELSSLRSEDTAVYYCARGYGNYKAWFAYWGQGTLVTVSS VL: DVQMTQSPSSLSASVGDRVTITCKASQSVSNDVAWYQQKPGKAPKLLIYYASTRYTGVPDRFSGSGYGTDFTFTISSLQPEDIATYYCQQDYSSLTFGQGTKLEIK | 0.8 | 7.2e-05 | 92600 |
| H3L2 (antibody, human IgG1, V domains shown) VH: QIQLVQSGAEVKKPGASVKVSCKASGYAFTSYNMYWVRQAPGQSLEWIGYIDPYNGGSSYNLTFKGKATITVDKSASTAYMELSSLRSEDTAVYYCARGYGNYKAWFAYWGQGTLVTVSS VL: DIQMTQSPSSLSASVGDRVTITCKASQSVSNDVAWYQQKPGKAPKLLIYYASTRYTGVPDRFSGSGYGTDFTFTISSLQPEDIATYYCQQDYSSLTFGQGTKLEIK | 1.4 | 0.000122 | 86600 |
| H0L2 (antibody, human IgG1, V domains shown, H0 VH limits counted by alignment with H1) VH: QVQLVQSGAEVKKPGASVKVSCKASGYTFTSYNMYWVRQAPGQRLEWMGYIDPYNGGSSYNLTFKGRVTITRDTSASTAYMELSSLRSEDTAVYYCARGYGNYKAWFAYWGQGTLVTVSS VL: DIQMTQSPSSLSASVGDRVTITCKASQSVSNDVAWYQQKPGKAPKLLIYYASTRYTGVPDRFSGSGYGTDFTFTISSLQPEDIATYYCQQDYSSLTFGQGTKLEIK | 0.7 | 0.000119 | 168000 |
| H0L4 (antibody, human IgG1, V domains shown, H0 VH limits counted by alignment with H1) VH: QVQLVQSGAEVKKPGASVKVSCKASGYTFTSYNMYWVRQAPGQRLEWMGYIDPYNGGSSYNLTFKGRVTITRDTSASTAYMELSSLRSEDTAVYYCARGYGNYKAWFAYWGQGTLVTVSS VL: DVQMTQSPSSLSASVGDRVTITCKASQSVSNDVAWYQQKPGKAPKLLIYYASTRYTGVPDRFSGSGYGTDFTFTISSLQPEDIATYFCQQDYSSLTFGQGTKLEIK | 0.6 | 8.65e-05 | 137000 |

Reference: patent US20220041744A1 (INNATE PHARMA, published 2022)
